B1: Sphingosine kinase 1 (Homo sapiens), Q9NYA1 (parent)
chain: MDPAGGPRGVLPRPCRVLVLLNPRGGKGKALQLFRSHVQPLLAEAEISFTLMLTERRNHARELVRSEELGRWDALVVMSGDGLMHEVVNGLMERPDWETAIQKPLCSLPAGSGNALAASLNHYAGYEQVTNEDLLTNCTLLLCRRLLSPMNLLSLHTASGLRLFSVLSLAWGFIADVDLESEKYRRLGEMRFTLGTFLRLAALRTYRGRLAYLPVGRVGSKTPASPVVVQQGPVDAHLVPLEEPVPSHWTVVPDEDFVLVLALLHSHLGSEMFAAPMGRCAAGVMHLFYVRAGVSRAMLLRLFLAMEKGRHMEYECPYLVYVPVVAFRLEPKDGKGVFAVDGELMVSEAVQGQVHPNYFWMVSGCVEPPPSWKPQQMPPPEEPL

The values that follow come from IntAct's records for PubMed 17064696.

In the first test the parent is B1. The following applies: with catb_human CTSB.
For the variant MDPAGGPRGVLPRPCRVLVLLNPRGGKGKALQLFRSHVQPLLAEAEISFTLMLTERRNHARELVRSEELGRWDALVVMSGDGLMHEVVNGLMERPDWETAIQKPLCSLPAGSGNALAASLEHYAGYEQVTNEDLLTNCTLLLCRRLLSPMNLLSLHTASGLRLFSVLSLAWGFIADVDLESEKYRRLGEMRFTLGTFLRLAALRTYRGRLAYLPVGRVGSKTPASPVVVQQGPVDAHLVPLEEPVPSHWTVVPDEDFVLVLALLHSHLGSEMFAAPMGRCAAGVMHLFYVRAGVSRAMLLRLFLAMEKGRHMEYECPYLVYVPVVAFRLEPKDGKGVFAVDGELMVSEAVQGQVHPNYFWMVSGCVEPPPSWKPQQMPPPEEPL [N121E], the “effect of a mutation on the interaction” value was “decreasing interaction”.

Variants of B1 are the subject of a further test. Conditions: with catb_human CTSB. This is another data set of the same source.
For MDPAGGPRGVLPRPCRVLVLLNPRGGKGKALQLFRSHVQPLLAEAEISFTLMLTERRNHARELVRSEELGRWDALVVMSGDGLMHEVVNGLMERPDWETAIQKPLCSLPAGSGNALAASLNHAAGYEQVTNEDLLTNCTLLLCRRLLSPMNLLSLHTASGLRLFSVLSLAWGFIADVDLESEKYRRLGEMRFTLGTFLRLAALRTYRGRLAYLPVGRVGSKTPASPVVVQQGPVDAHLVPLEEPVPSHWTVVPDEDFVLVLALLHSHLGSEMFAAPMGRCAAGVMHLFYVRAGVSRAMLLRLFLAMEKGRHMEYECPYLVYVPVVAFRLEPKDGKGVFAVDGELMVSEAVQGQVHPNYFWMVSGCVEPPPSWKPQQMPPPEEPL [Y123A], the “effect of a mutation on the interaction” value was “decreasing interaction”.

Another test covers variants of B1. The following applies: with catb_human CTSB. This is another data set of the same source.
As for MDPAGGPRGVLPRPCRVLVLLNPRGGKGKALQLFRSHVQPLLAEAEISFTLMLTERRNHARELVRSEELGRWDALVVMSGDGLMHEVVNGLMERPDWETAIQKPLCSLPAGSGNALAASLNYYAGYEQVTNEDLLTNCTLLLCRRLLSPMNLLSLHTASGLRLFSVLSLAWGFIADVDLESEKYRRLGEMRFTLGTFLRLAALRTYRGRLAYLPVGRVGSKTPASPVVVQQGPVDAHLVPLEEPVPSHWTVVPDEDFVLVLALLHSHLGSEMFAAPMGRCAAGVMHLFYVRAGVSRAMLLRLFLAMEKGRHMEYECPYLVYVPVVAFRLEPKDGKGVFAVDGELMVSEAVQGQVHPNYFWMVSGCVEPPPSWKPQQMPPPEEPL [H122Y], the “effect of a mutation on the interaction” value was “decreasing interaction”.
